Assay results taken from publication PMC9138527.

Tests used:
Assay in all cases: EMSA
[1] = system: Protamine-like proteins mixture (PL-II, PL-III, PL-IV), 1 nM Cr(VI)-exposed mussels (Mytilus galloprovincialis); conditions: mussels exposed to 1 nM Cr(VI); saturation not reached; DNA (150 ng pGEM3 or 450 ng sperm DNA) plus PLs in ultrapure water, 30 uL, 5 min, room temperature; TBE to 1x added just before the run; 1% (plasmid) or 0.6% …
[2] = system: Protamine-like proteins mixture (PL-II, PL-III, PL-IV), unexposed mussels (Mytilus galloprovincialis); conditions: DNA (150 ng pGEM3 or 450 ng sperm DNA) plus PLs in ultrapure water, 30 uL, 5 min, room temperature, TBE to 1x added just before the run, 1% (plasmid) or 0.6% …
[3] = system: Protamine-like proteins mixture (PL-II, PL-III, PL-IV), 100 nM Cr(VI)-exposed mussels (Mytilus galloprovincialis); conditions: mussels exposed to 100 nM Cr(VI), DNA (150 ng pGEM3 or 450 ng sperm DNA) plus PLs in ultrapure water, 30 uL, 5 min, room temperature, TBE to 1x added just before the run, 1% (plasmid) or 0.6% …
[4] = system: Protamine-like proteins mixture (PL-II, PL-III, PL-IV), 10 nM Cr(VI)-exposed mussels (Mytilus galloprovincialis); conditions: mussels exposed to 10 nM Cr(VI), DNA (150 ng pGEM3 or 450 ng sperm DNA) plus PLs in ultrapure water, 30 uL, 5 min, room temperature, TBE to 1x added just before the run, 1% (plasmid) or 0.6% …
[5] = scale: wt/wt protein/DNA at almost complete saturation

In the case of pGEM3 plasmid, the binding signal (wt/wt protein/DNA at saturation) [1] is reported as greater than 1.8, the binding signal (wt/wt protein/DNA at saturation) [2] is reported as 0.8 and the binding signal (wt/wt protein/DNA at saturation) [3] is reported as 0.8. It also gave a binding signal (wt/wt protein/DNA at saturation) [4] of 0.8.
sperm genomic DNA showed a binding signal ([2]; unexposed, scale: wt/wt protein/DNA at almost complete saturation) of 0.6, a binding signal [3, 5] of 0.6 and a binding signal [4, 5] of 0.6.
